# Substitutions are numbered along the chain they refer to.
# B1: C68.201 (antibody, V domains shown)
# VH: EVQLVQSGAEVKKPGESLKISCTGSGYSFAYYWIGWVRQMPGKGLEWMGNIYPGDSDTRYSPSFQGQITISSDKSISTAYLQWSSLKASDTAMYYCATRYSGTHYVGIDAFEIWGQGTMVTVSS
# VL: not shown
# B2: C68.286 (antibody, V domains shown)
# VH: QSTLKESGPALVKPTQTLTLTCTFSGFSLSTSGMCVSWIRQPPGKALEWLARIDWDDDKYYSTSLETRLTISKDTSKNQVVLTMTNMDPVDTATYYCARMTVAGPSLDYWGQGTLVTVSS
# VL: not shown
# B3: C68.304 (antibody, V domains shown)
# VH: EVQLVESGGGVVQPGRSLRLSCAASGFIFSNYDMHWVRQAPGKGLEWVAVIWYDGSNKYYADSVKGRFTISRDNSKNTLYLQMNSLRADDTAMYYCSRHDSGTYYYFDSWGQGTLVTVSS
# VL: LTVVTQEPSFSVSPGGTVTLTCGLSSGSVSTSYYPSWYQQTPGQPPRTLIYTTITRSSGVPDRFSGSILGNKAALTITGAQGDDESDYYCVLYMGSGNWVFGGGTKLTVL
# B4: C68.285 (antibody, V domains shown)
# VH: QVQLVQSGAEVKKPGASVKVSCKASGYTFSNYFMHWVRQAPGQGLEWMGIINPSGVSTSYAQKFQGRITMTRDTSTSTVYMELSSLRSEDTAVYYCAFEMGAAPFDYWGQGTLVTVSS
# VL: DIQLTQSPSFLSASVGDRVTITCRASQGISSYLAWYQQKPGKAPKVLIYDASTLQSGVPSRFSGSGSGTEFTLTISSLQPEDFATYYCQQLNTYPQGLTFGGGTKVEIK
# B5: C68.239 (antibody, V domains shown)
# VH: EVQLLESGGGLVQPGGSLRLSCAASGFTFSSYAMSWVRQAPGKGLEWVSAISGGGDNTYYADSVKGRFTISRDNSKNTLYLQMNSLRAEDTAVYFCAKNPITVVPAAWDRGYFDLWGRGTLVTVSS
# VL: SYELTQPPSVSVAPRKTARITCGGNNIGSYSVHWYQQRPGQAPVLVVHDDSDRPSGIPERFSGSNSGNTATLTISRVEAGDEADYYCQVWDSSSDHRGVFGGGTKLTVL
# B6: C68.185 (antibody, V domains shown)
# VH: QVQLVQSGAEVKKPGASVKVSCKTSGYAFTDHYVHWVRQAPGQGLEWMGVINPSGVGTSYAQMFQDRVTLTSDTSTSTVYMVLSSLRSEDTAVYYCVRDDYGVPARGWFDPWGQGTLVTVSS
# VL: EVVLTQSPATLSLSPGERATLSCRASQSISSYLAWYQQKPGQAPRLLIYDASNRATGVPARFSGSGSGADFTLTISSLEAEDFALYYCQHRSNWLYTFGQGTKLEIK
# B7: C68.83 (antibody, V domains shown)
# VH: EVQLVESGGGVVQPGRSLRLSCAASGFIFSSYGMHWVRQAPGKGLEWVAVIWYDGSNKYYADSVKGRFTISRDNSKNTLYLQMNSLRAEDTAVYYCARDDPEVGCSGGSCYYYYDMDVWGQGTTVTVSS
# VL: SYELTQPPSVSVSPGQTARITCSGDALPKQHAHWYQQKPGQAPVLVIYKDIERPSGIPERFSGSSSGTTVTLTISGVQAEDEADYYCQSADSSVTYVVFGGGTKLTVL
# B8: C68.327 (antibody, V domains shown)
# VH: EVQLLESGGGLVQPGGSLRLSCAASGFTFGSYAMSWVRQAPGKGLEWVSAISGSGGSTYYADSVKGRFTISRDNSKNTLYLQMNSLRAEDTAVYNCAKDLWDGFHWFDSWGQGTLVTVSS
# VL: DIQMTQSPSSVSASVGDRVTITCRASQGISSWLAWYQQKPGKAPNLLIYSASSLQSGVPSRFSGSGSGTDFTLTISSLQPEDFATYYCQQANSFPITFGQGTRLEIK
# B9: C68.88 (antibody, V domains shown)
# VH: QVQLQESGPGLVKPSETLSLTCSVSGGPISSSRYYWGWIRQSPGEGLEWIGTIYYSGSTYYNPSFKSRVTISVDTSKNQFSLKLSSVTAADTAVYYCATRCYDFWSGYYNREMLWFDCWGQGTLVTVSS
# VL: NFMLTQPHSVSESPGKTVTISCTRSSGSIASNYVQWYQQRPGSSPTTVIYENNQTPSGVPDRFSGSIDSSSNSASLTISGLKTEDEADYYCQSYDSSVVVFGGGTKLTVL
# B10: C68.175 (antibody, V domains shown)
# VH: EVQLLESGGGLVQPGGSLRLSCAASGFTFSSYAMSWVRQAPGKGLEWVSGISGSGGSTYYADSVKGRFTISRDNSKNTLHLQMNSLRAEDTAVYYCAKGSRWNPDYFDYWGQGTLVTVSS
# VL: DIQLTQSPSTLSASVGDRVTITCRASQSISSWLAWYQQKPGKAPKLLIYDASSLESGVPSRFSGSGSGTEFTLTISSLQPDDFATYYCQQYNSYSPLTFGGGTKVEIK
# B11: C68.183 (antibody, V domains shown)
# VH: EVQLLESGGGLVQPGGSLRLSCVASGFTFRNFAMSWVRQAPGKGLEWVSAISGSGDSTYYADSVKGRFTISRDNSKNTLYLQVNSLRVEDTAIYYCAKGSRGSTDYFDSWGQGTLVTVSS
# VL: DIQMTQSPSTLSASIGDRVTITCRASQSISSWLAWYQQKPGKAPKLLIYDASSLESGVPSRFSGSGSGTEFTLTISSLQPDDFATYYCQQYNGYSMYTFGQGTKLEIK
# B12: C68.121 (antibody, V domains shown)
# VH: EVQLVESGGGLVKPGGSLRLSCAASGFTFSDYYMTWIRQAPGKGLEWVSKITNSNSYTHYADSVKGRFTISRDNAKNSLFLHMNSLRAEDTAVYYCARAIWIGYPDDYYMDVWGKGTTVTVSS
# VL: SYELTQPPSVSVSPGQTARITCSGDTLPNQYVYWYQQKPGQAPVLLIYKDTERPSGIPERVSGSTSGTTVTLTISGVQAEDEADYYCQSADSSGTSFGGGTKLTVL
# B13: C68.348 (antibody, V domains shown)
# VH: QVQLQESGPRLVKSSGTLSLTCAVSGGSISSSKWWSWVRQPPGKGLEWIGEVYHGGSTNYNPSLKSRVTISVDKAKNQFSLKLSSVTAADSAVYYCASLDSAAVFDYWGQGTLVTVSS
# VL: QSALTQPASVSGSPGQSITISCTGTSSDVGRFNYVSWYQQHPGKAPKLLIYDVSNRPSGVSNRFSGSKSGNTASLTISGLQAEDEADYYCNSYTSSSTLYVFGTGTKVTVL
# B14: C68.200 (antibody, V domains shown)
# VH: EVQLLESGGGLVQPGGSLRLSCTASGFTFSRYALTWVRQAPGKGLEWVSAISGSGGNTNYADSVKGRFTISRDNSKNTLYLQMNSLRAEDTAVYYCAKSPRYNNDYFDFWGQGTLVTVSS
# VL: DIQLTQSPSTLSASVGDRVTITCRASQSISSWLAWYQQKPGKAPKLLIYDASSLESGVPSRFSGSGSGTEFTLTISSLQPDDFATYYCQQYNTFITFGHGTRLEIK
# B15: C68.203 (antibody, V domains shown)
# VH: B14 VH with W47C, I51F, G56D, N57S, N59Y, N104S
# VL: B14 VL with T93S, H99Q
# B16: C68.61 (antibody, V domains shown)
# VH: EVQLVQSGAEVKKPGESLKISCKGSAYIFTRYWIGWVRQMPGKGLEWMGIIYPGDSDTRYSPSFQGQVTISADKSISTAYLQWSSLKASDTAMYYCARSGTTNYFDYWGQGTLVTVSS
# VL: B14 VL with E55D, E70D, Y91F, T93S, F94Y, I95W, H99Q, R102K, L103V
# Biological target: SARS-CoV-2 Omicron XBB recombinant spike protein (trimer) (SARS-CoV-2 Omicron XBB (entry: XBB.1), strain)
# Assay: not given
# Conditions: not given
row,Binder,binding result
1,B1,binds

# Biological target: T1, SARS-CoV-2 RBD subunit (recombinant) (SARS-CoV-2 Wuhan-Hu-1, UniProt P0DTC2)
# Assay: not given
# Conditions: not given
row,Binder,binding result
1,B1,binds
2,B2,binds
3,B3,binds
4,B4,binds

# Biological target: T1, SARS-CoV-2 RBD subunit (recombinant)
# Assay: ELISA
# Conditions: both partners purified
row,Binder,binding result
1,B5,binds
2,B6,binds
3,B7,binds
4,B8,binds
5,B9,binds
6,B10,binds
7,B11,binds
8,B12,binds
9,B13,binds
10,B14,binds
11,B15,binds

# Biological target: RsSHC014 RBD, yeast-displayed (Bat SARS-like coronavirus RsSHC014, UniProt U5WLK5)
# Assay: flow cytometry on cells
# Conditions: one partner purified
Binder,binding result,fold lower binding than to SARS-CoV-1 RBD [fold]
B5,binds,
B6,,~10
B9,binds,
B11,binds,
B16,binds,

# Biological target: SARS-CoV-1 RBD, yeast-displayed (SARS-CoV-1, strain  (P59594 …, UniProt P59594))
# Assay: flow cytometry on cells
# Conditions: one partner purified
row,Binder,binding result
1,B6,binds
